Conditions: Mus musculus; pH 4; 23 °C; GdnHCl; Fluorescence; sodium phosphate 100 mM; reversible: yes; whole UniProt chain shown

B1: Beta-nerve growth factor wild type, P01139 (protein)
chain: MSMLFYTLITAFLIGVQAEPYTDSNVPEGDSVPEAHWTKLQHSLDTALRRARSAPTAPIAARVTGQTRNITVDPRLFKKRRLHSPRVLFSTQPPPTSSDTLDLDFQAHGTIPFNRTHRSKRSSTHPVFHMGEFSVCDSVSVWVGDKTTATDIKGKEVTVLAEVNINNSVFRQYFFETKCRASNPVESGCRGIDSKHWNSYCTTTHTFVKALTTDEKQAAWRFIRIDTACVCVLSRKATRRG
- unfolding free energy: 14.5 kcal/mol

From FireProtDB (doi:10.1002/pro.5560010205)
